Measured values taken from patent publication US20250263470A1.
Where a chain is given by its changes, count along the chain named.

How the values were obtained:
[1] = target: HA of influenza B virus B/Hong Kong/330/2001 (victoria) (influenza B virus B/Hong Kong/330/2001); test: cell-based or functional assay
[2] = target: HA of influenza B virus B/Hong Kong/5/72 (influenza B virus B/Hong Kong/5/72); test: cell-based or functional assay
[3] = target: HA of influenza B virus B/Lee/40 (influenza B virus B/Lee/40) (UniProt P03460); test: cell-based or functional assay
[4] = target: HA of influenza B virus B/Malaysia/2506/2004 (victoria) (influenza B virus B/Malaysia/2506/2004); test: cell-based or functional assay
[5] = target: HA of influenza B virus B/Ohio/1/2005 (victoria) (influenza B virus B/Ohio/1/2005); test: cell-based or functional assay
[6] = target: HA of influenza B virus B/Shanghai/361/02 (yamagata) (influenza B virus B/Shanghai/361/02); test: cell-based or functional assay
[7] = target: HA of influenza B virus B/Sichuan/379/99 (yamagata) (influenza B virus B/Sichuan/379/99); test: cell-based or functional assay
[8] = target: HA of influenza B virus B/Yamagata/16/88 (yamagata) (influenza B virus B/Yamagata/16/88); test: cell-based or functional assay
[9] = target: HA of influenza B virus ca B/Ann Arbor/1/66 (influenza B virus B/Ann Arbor/1/66); test: cell-based or functional assay
[10] = target: HA of influenza B virus ca B/Ann Arbor/2/94 (yamagata) (influenza B virus B/Ann Arbor/2/94); test: cell-based or functional assay
[11] = target: HA of influenza B virus ca B/Beijing/243/97 (victoria) (influenza B virus B/Beijing/243/97); test: cell-based or functional assay
[12] = target: HA of influenza B virus ca B/Brisbane/60/2008 (victoria) (influenza B virus B/Brisbane/60/2008); test: cell-based or functional assay
[13] = target: HA of influenza B virus ca B/Georgia/02/98 (yamagata) (influenza B virus B/Georgia/02/98); test: cell-based or functional assay
[14] = target: HA of influenza B virus ca B/Johannesburg/5/99 (yamagata) (influenza B virus B/Johannesburg/5/99); test: cell-based or functional assay
[15] = target: HA of influenza B virus ca B/Victoria/504/2000 (yamagata) (influenza B virus B/Victoria/504/2000); test: cell-based or functional assay
[16] = target: HA of influenza B virus ca B/Yamanashi/166/98 (yamagata) (influenza B virus B/Yamanashi/166/98); test: cell-based or functional assay
[17] = target: recombinant HA derived from influenza A subtype H9 (A/chicken/HK/G9/97 (H9N2)) (influenza A virus A/chicken/Hong Kong/G9/97 (H9N2)); test: ELISA on coated recombinant H9 HA
[18] = target: recombinant HA derived from Victoria lineage strain B/BNE/08 (B/Brisbane/60/2008) (influenza B virus B/Brisbane/60/2008); test: ELISA on coated recombinant HA, unpurified IgG
[19] = target: recombinant HA derived from Yamagata lineage strain B/FLA/06 (B/Florida/4/2006) (influenza B virus B/Florida/4/2006); test: ELISA on coated recombinant HA, unpurified IgG
[20] = target: recombinant HA derived from Victoria lineage strain B/BNE/08 (B/Brisbane/60/2008) (influenza B virus B/Brisbane/60/2008); test: ELISA on coated recombinant HA, average of three experiments
[21] = target: recombinant HA derived from Yamagata lineage strain B/FLA/06 (B/Florida/4/2006) (influenza B virus B/Florida/4/2006); test: as above

B1: FBC-39 (antibody, V domains shown)
VH: EVQLVVSGGGLVKPGGSLRLSCAASGLSFLNAWMSWVRQAPGKGLEWVGRIKSNTDGGTTDYAAPVKGRFSISRDDSKNMLFLHMSSLRTEDTAVYYCATDGPYSDDFRSGYAARYRYFGMDVWGQGTTVTVSS
VL: DIQMTQSPSSVSASVGDRVTITCRASQDISTWLAWYQQKPGKAPKLLIYAASSLQSGVPSRFSGSGSGTDFTLTISSLQPEDFATYFCQQANSFPPTFGQGTKLEIK
Hemagglutination Inhibition Titer [1]: 16 nM | Neutralization (Ave IC50 ug/ml) [1]: 0.142 µg/mL | Hemagglutination Inhibition Titer [2]: 8 nM | Neutralization (Ave IC50 ug/ml) [2]: 0.026 µg/mL | Hemagglutination Inhibition Titer [3]: 5 nM | Neutralization (Ave IC50 ug/ml) [3]: 0.021 µg/mL | Hemagglutination Inhibition Titer [4]: 20 nM | Neutralization (Ave IC50 ug/ml) [4]: 0.079 µg/mL | Hemagglutination Inhibition Titer [5]: 24 nM | Hemagglutination Inhibition Titer [6]: 16 nM | Hemagglutination Inhibition Titer [7]: 10 nM | Neutralization (Ave IC50 ug/ml) [7]: 0.034 µg/mL | Hemagglutination Inhibition Titer [8]: 11 nM | Hemagglutination Inhibition Titer [9]: 6 nM | Neutralization (Ave IC50 ug/ml) [9]: 0.061 µg/mL | Hemagglutination Inhibition Titer [10]: 6 nM | Neutralization (Ave IC50 ug/ml) [10]: 0.027 µg/mL | Hemagglutination Inhibition Titer [11]: 14 nM | Neutralization (Ave IC50 ug/ml) [11]: 0.218 µg/mL | Hemagglutination Inhibition Titer [12]: 20 nM | Neutralization (Ave IC50 ug/ml) [12]: 0.238 µg/mL | Hemagglutination Inhibition Titer [13]: 16 nM | Hemagglutination Inhibition Titer [14]: 18 nM | Neutralization (Ave IC50 ug/ml) [14]: 0.304 µg/mL | Hemagglutination Inhibition Titer [15]: 16 nM | Hemagglutination Inhibition Titer [16]: 13 nM | Neutralization (Ave IC50 ug/ml) [16]: 0.039 µg/mL | EC50 [17]: 6.2 µg/mL | EC50 [18]: 0.186 µg/mL | EC50 [19]: 0.022 µg/mL | EC50 [20]: 0.048 µg/mL | EC50 [21]: 0.02 µg/mL

B2: FBC-39 LTS (antibody, V domains shown)
VH: B1 VH with V6E, S28T, L30S, S71T, M80T, F82Y, H84Q, R89K, A99T
VL: B1 VL with F87Y
EC50 [18]: > 1 µg/mL | EC50 [19]: 0.013 µg/mL

B3: FBC-39 LTL (antibody, V domains shown)
VH: B1 VH with V6E, S28T, S71T, M80T, F82Y, H84Q, R89K, A99T
VL: B1 VL with F87Y
Neutralization (Ave IC50 ug/ml) [1]: 0.084 µg/mL | Neutralization (Ave IC50 ug/ml) [2]: 0.018 µg/mL | Neutralization (Ave IC50 ug/ml) [3]: 0.01 µg/mL | Neutralization (Ave IC50 ug/ml) [4]: 0.076 µg/mL | Neutralization (Ave IC50 ug/ml) [7]: 0.023 µg/mL | Neutralization (Ave IC50 ug/ml) [9]: 0.023 µg/mL | Neutralization (Ave IC50 ug/ml) [10]: 0.023 µg/mL | Neutralization (Ave IC50 ug/ml) [11]: 0.152 µg/mL | Neutralization (Ave IC50 ug/ml) [12]: 0.151 µg/mL | Neutralization (Ave IC50 ug/ml) [16]: 0.01 µg/mL | EC50 [17]: 6.3 µg/mL | EC50 [18]: 0.114 µg/mL | EC50 [19]: 0.017 µg/mL

B4: FBC-39 FTL (antibody, V domains shown)
VH: B1 VH with V6E, L27F, S28T, S71T, M80T, F82Y, H84Q, R89K, A99T
VL: B1 VL with F87Y
Neutralization (Ave IC50 ug/ml) [1]: 0.121 µg/mL | Neutralization (Ave IC50 ug/ml) [2]: 0.022 µg/mL | Neutralization (Ave IC50 ug/ml) [3]: 0.013 µg/mL | Neutralization (Ave IC50 ug/ml) [4]: 0.074 µg/mL | Neutralization (Ave IC50 ug/ml) [7]: 0.023 µg/mL | Neutralization (Ave IC50 ug/ml) [9]: 0.026 µg/mL | Neutralization (Ave IC50 ug/ml) [10]: 0.023 µg/mL | Neutralization (Ave IC50 ug/ml) [11]: 0.134 µg/mL | Neutralization (Ave IC50 ug/ml) [12]: 0.098 µg/mL | Neutralization (Ave IC50 ug/ml) [16]: 0.007 µg/mL | EC50 [17]: 46.1 µg/mL | EC50 [18]: 0.118 µg/mL | EC50 [19]: 0.017 µg/mL

B5: FBC-39 LSL (antibody, V domains shown)
VH: B1 VH with V6E, S71T, M80T, F82Y, H84Q, R89K, A99T
VL: B1 VL with F87Y
Neutralization (Ave IC50 ug/ml) [1]: 0.172 µg/mL | Neutralization (Ave IC50 ug/ml) [2]: 0.019 µg/mL | Neutralization (Ave IC50 ug/ml) [3]: 0.014 µg/mL | Neutralization (Ave IC50 ug/ml) [4]: 0.094 µg/mL | Neutralization (Ave IC50 ug/ml) [7]: 0.026 µg/mL | Neutralization (Ave IC50 ug/ml) [9]: 0.027 µg/mL | Neutralization (Ave IC50 ug/ml) [10]: 0.033 µg/mL | Neutralization (Ave IC50 ug/ml) [11]: 0.182 µg/mL | Neutralization (Ave IC50 ug/ml) [12]: 0.1 µg/mL | Neutralization (Ave IC50 ug/ml) [16]: 0.014 µg/mL | EC50 [17]: 41.7 µg/mL | EC50 [18]: 0.152 µg/mL | EC50 [19]: 0.021 µg/mL

B6: FBC-39 FSS (antibody, V domains shown)
VH: B1 VH with V6E, L27F, L30S, S71T, M80T, F82Y, H84Q, R89K, A99T
VL: B1 VL with F87Y
EC50 [18]: > 1 µg/mL | EC50 [19]: 0.019 µg/mL

B7: FBC-39 FSL (antibody, V domains shown)
VH: B1 VH with V6E, L27F, S71T, M80T, F82Y, H84Q, R89K, A99T
VL: B1 VL with F87Y
Neutralization (Ave IC50 ug/ml) [1]: 0.132 µg/mL | Neutralization (Ave IC50 ug/ml) [2]: 0.019 µg/mL | Neutralization (Ave IC50 ug/ml) [3]: 0.011 µg/mL | Neutralization (Ave IC50 ug/ml) [4]: 0.076 µg/mL | Neutralization (Ave IC50 ug/ml) [7]: 0.022 µg/mL | Neutralization (Ave IC50 ug/ml) [9]: 0.034 µg/mL | Neutralization (Ave IC50 ug/ml) [10]: 0.023 µg/mL | Neutralization (Ave IC50 ug/ml) [11]: 0.195 µg/mL | Neutralization (Ave IC50 ug/ml) [12]: 0.08 µg/mL | Neutralization (Ave IC50 ug/ml) [16]: 0.009 µg/mL | EC50 [18]: 0.273 µg/mL | EC50 [19]: 0.014 µg/mL

B8: FBD-56 (antibody, V domains shown)
VH: EVQLVESGGHLVQPGRSLRLSCAASGFTFEDYAMNWVRQAPGKGLEWVSVISWDSGRIGYADSVKGRFTISRDNAKNSSYLQMNSLRPEDTALYYCVRDMLAYYSDNSGKKYNVYGMDVWGQGTTVTVSS
VL: EIVLTQSPATLSLSPGERATLSCRASQSVSTFLAWYQQKPGQAPRLLMYDASNRATGIPARFSGSGSGTDFTLTISSLEPEDFAIYYCQQRSHWPPIFGQGTRLEIK
Neutralization (Ave IC50 ug/ml) [1]: 0.038 µg/mL | Neutralization (Ave IC50 ug/ml) [2]: 0.051 µg/mL | Neutralization (Ave IC50 ug/ml) [3]: 0.004 µg/mL | Neutralization (Ave IC50 ug/ml) [4]: 0.058 µg/mL | Neutralization (Ave IC50 ug/ml) [9]: 0.035 µg/mL | Neutralization (Ave IC50 ug/ml) [10]: 1.25 µg/mL | Neutralization (Ave IC50 ug/ml) [11]: 0.016 µg/mL | Neutralization (Ave IC50 ug/ml) [12]: 0.01 µg/mL | Neutralization (Ave IC50 ug/ml) [14]: 0.021 µg/mL | Neutralization (Ave IC50 ug/ml) [16]: 0.133 µg/mL | EC50 [20]: 0.03 µg/mL | EC50 [21]: 0.024 µg/mL

B9: FBD-94 (antibody, V domains shown)
VH: EVQLVESGGGLVQPGRSLRLSCAVSGFIFEDYAINWVRQAPGKGLEWVSIISWDSGRIGYADSVRGRFTISRDNAKNSSFLQMNSLRPEDTAVYYCVKDMLAYYYDGSGIRYNLYGMDVWGQGTTVTVSS
VL: B8 VL with Q27R, V29I, S30T, M48I, I58V, S76N, E81D, S92D
Hemagglutination Inhibition Titer [1]: 10 nM | Neutralization (Ave IC50 ug/ml) [1]: 0.021 µg/mL | Hemagglutination Inhibition Titer [2]: 3 nM | Neutralization (Ave IC50 ug/ml) [2]: 0.017 µg/mL | Hemagglutination Inhibition Titer [3]: 1 nM | Neutralization (Ave IC50 ug/ml) [3]: 0.009 µg/mL | Hemagglutination Inhibition Titer [4]: 10 nM | Neutralization (Ave IC50 ug/ml) [4]: 0.023 µg/mL | Hemagglutination Inhibition Titer [5]: 10 nM | Hemagglutination Inhibition Titer [6]: 0 nM | Hemagglutination Inhibition Titer [7]: 5 nM | Hemagglutination Inhibition Titer [8]: 250 nM | Hemagglutination Inhibition Titer [9]: 10 nM | Neutralization (Ave IC50 ug/ml) [9]: 0.014 µg/mL | Hemagglutination Inhibition Titer [10]: 5 nM | Neutralization (Ave IC50 ug/ml) [10]: 0.891 µg/mL | Hemagglutination Inhibition Titer [11]: 10 nM | Neutralization (Ave IC50 ug/ml) [11]: 0.005 µg/mL | Hemagglutination Inhibition Titer [12]: 4 nM | Neutralization (Ave IC50 ug/ml) [12]: 0.006 µg/mL | Hemagglutination Inhibition Titer [13]: 8 nM | Hemagglutination Inhibition Titer [14]: 10 nM | Neutralization (Ave IC50 ug/ml) [14]: 0.012 µg/mL | Hemagglutination Inhibition Titer [15]: 8 nM | Hemagglutination Inhibition Titer [16]: 10 nM | Neutralization (Ave IC50 ug/ml) [16]: 0.012 µg/mL | EC50 [20]: 0.016 µg/mL | EC50 [21]: 0.013 µg/mL
